Non-standard residues stand in square brackets, D forms with d. No end group written: not given here. pS = N[C@@H](COP(=O)(O)O)C(=O)O
What was measured:
Conditions in all cases: both partners purified
AP2 µ2 = biological target: T1, AP2 µ2 (human, UniProt Q96CW1 1-435); assay: fluorescence polarisation; direct binding (saturation curve): 1:1 dilution series of the protein domain with 5 nM FITC-labelled peptide; room temperature; 50 mM sodium phosphate buffer pH 7.4; fitted to the quadratic equation
T1 construct: AP-2 complex subunit mu (AP2 µ2); also called AP2 μ2; source: E. coli BL21-Gold(DE3), purified (GSH or Ni2+ beads), tag removed by protease
T1 sequence (looked up): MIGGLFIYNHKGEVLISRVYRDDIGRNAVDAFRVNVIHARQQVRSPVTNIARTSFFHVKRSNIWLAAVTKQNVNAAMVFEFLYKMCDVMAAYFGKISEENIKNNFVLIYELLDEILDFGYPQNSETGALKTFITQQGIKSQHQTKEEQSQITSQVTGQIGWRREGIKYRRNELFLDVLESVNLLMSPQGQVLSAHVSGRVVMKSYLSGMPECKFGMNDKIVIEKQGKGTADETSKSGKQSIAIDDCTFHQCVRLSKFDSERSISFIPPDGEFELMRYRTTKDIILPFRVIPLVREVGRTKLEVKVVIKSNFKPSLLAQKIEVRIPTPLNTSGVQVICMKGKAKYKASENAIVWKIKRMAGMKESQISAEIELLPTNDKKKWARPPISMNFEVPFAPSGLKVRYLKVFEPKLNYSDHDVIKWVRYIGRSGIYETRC

14-3-3 Theta = biological target: T2, 14-3-3 Theta (human, UniProt P27348 1-245); assay: as above
T2 sequence (looked up): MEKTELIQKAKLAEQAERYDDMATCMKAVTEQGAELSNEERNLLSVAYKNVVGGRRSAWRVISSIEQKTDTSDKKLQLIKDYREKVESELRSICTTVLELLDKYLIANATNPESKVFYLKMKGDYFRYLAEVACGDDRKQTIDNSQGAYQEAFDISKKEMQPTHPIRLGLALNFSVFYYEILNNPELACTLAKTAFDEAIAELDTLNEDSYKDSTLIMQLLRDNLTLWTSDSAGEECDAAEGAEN

[1] = biological target: SNX27 PDZ domain, MBP-tagged (human, UniProt Q96L92 43-136); assay: as above
TSG101 UEV domain = biological target: T3, TSG101 UEV domain (human, UniProt Q99816 2-145); assay: as above
T3 sequence (looked up): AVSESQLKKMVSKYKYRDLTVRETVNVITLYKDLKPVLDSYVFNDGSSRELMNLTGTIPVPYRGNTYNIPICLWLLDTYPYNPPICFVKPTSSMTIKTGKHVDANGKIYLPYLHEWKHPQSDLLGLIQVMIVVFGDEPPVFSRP

[2] = biological target: T4, Clathrin N-terminal domain (NTD) (human, UniProt Q00610 1-364); assay: fluorescence polarisation; displacement: unlabelled peptide diluted 1:1 in series and added to a pre-formed complex of protein domain and FITC-labelled probe peptide (5 nM in the measurement); 50 mM sodium phosphate pH 7.4, room temperature; KD calculated from the displacement curves; technical triplicates
T4 construct: clathrin heavy chain, N-terminal domain; also called Clathrin NTD; CLTC-NTD; source: E. coli BL21-Gold(DE3), purified (GSH or Ni2+ beads), tag removed with protease
T4 sequence: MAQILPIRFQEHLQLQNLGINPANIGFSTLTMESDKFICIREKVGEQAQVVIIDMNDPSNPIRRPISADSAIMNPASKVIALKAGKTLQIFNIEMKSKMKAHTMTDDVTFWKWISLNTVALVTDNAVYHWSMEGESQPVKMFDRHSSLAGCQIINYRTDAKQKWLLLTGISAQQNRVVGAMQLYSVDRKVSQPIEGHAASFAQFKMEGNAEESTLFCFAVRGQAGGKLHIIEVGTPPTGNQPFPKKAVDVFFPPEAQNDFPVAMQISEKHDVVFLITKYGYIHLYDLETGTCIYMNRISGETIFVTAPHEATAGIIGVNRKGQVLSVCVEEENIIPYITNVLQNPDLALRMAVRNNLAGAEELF

GGA1 VHS domain = biological target: T5, GGA1 VHS domain (human, UniProt Q9UJY5 17-147); assay: fluorescence polarisation; direct binding (saturation curve): 1:1 dilution series of the protein domain with 5 nM FITC-labelled peptide; room temperature; 50 mM sodium phosphate buffer pH 7.4; fitted to the quadratic equation
T5 construct: GGA1, VHS domain; source: E. coli BL21-Gold(DE3), purified (GSH or Ni2+ beads), tag removed by protease
T5 sequence (looked up): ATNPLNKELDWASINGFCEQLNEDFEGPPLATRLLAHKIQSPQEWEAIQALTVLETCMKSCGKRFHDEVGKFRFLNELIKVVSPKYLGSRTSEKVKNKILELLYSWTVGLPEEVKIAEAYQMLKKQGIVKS

FITC-HIV1_Gag = biological target: T6, FITC-HIV1_Gag (HIV-1 (printed as HIV1), also: FITC label, position not given here); assay: as above
T6 chain: SLYPPLTSLR

FITC-MYC = biological target: T7, FITC-MYC (also: FITC label, position not given here); assay: as above
T7 chain: PAAKRVKLD

FITC-NCOR2 = biological target: T8, FITC-NCOR2 (also: FITC label, position not given here); assay: as above
T8 chain: PKRTYDMMEGRVGRAI

[3] = biological target: T9, Clathrin N-terminal domain (NTD) (human, UniProt Q00610 1-364); assay: as above
T9 construct: clathrin heavy chain, N-terminal domain; also called Clathrin NTD; CLTC-NTD; source: E. coli BL21-Gold(DE3), purified (GSH or Ni2+ beads), tag removed by protease
T9 sequence: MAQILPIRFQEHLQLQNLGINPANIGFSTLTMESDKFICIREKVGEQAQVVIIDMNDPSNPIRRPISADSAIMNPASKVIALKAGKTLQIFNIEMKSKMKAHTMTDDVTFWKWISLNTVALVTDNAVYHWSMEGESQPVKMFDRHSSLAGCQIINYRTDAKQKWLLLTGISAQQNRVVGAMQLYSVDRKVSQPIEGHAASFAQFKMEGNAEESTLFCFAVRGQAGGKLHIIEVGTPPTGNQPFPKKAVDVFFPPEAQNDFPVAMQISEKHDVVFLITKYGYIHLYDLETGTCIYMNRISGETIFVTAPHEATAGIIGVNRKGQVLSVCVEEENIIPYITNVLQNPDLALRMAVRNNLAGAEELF

GGA1 VHS = biological target: T10, GGA1 VHS (human, UniProt Q9UJY5 17-147); assay: fluorescence polarisation; displacement of a FITC-labelled probe peptide (5 nM in the measurement) from the protein domain (1-2 fold over the probe's KD) by a dilution series of unlabelled peptide; room temperature; 50 mM sodium phosphate pH 7.4; KD calculated from the displacement curve; for KPNA4 ARM one probe for each pocket
T10 construct: GGA1 VHS domain; limits in Dataset EV3; construct limits are in Dataset EV3; also called GGA1 VHS domain; source: E. coli BL21-Gold(DE3), purified, tag removed
T10 sequence (looked up): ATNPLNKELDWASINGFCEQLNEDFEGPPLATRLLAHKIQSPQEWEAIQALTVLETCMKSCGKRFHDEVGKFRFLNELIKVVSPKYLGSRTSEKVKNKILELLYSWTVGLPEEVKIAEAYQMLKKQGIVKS

GABARAPL2 ATG8 = biological target: T11, GABARAPL2 ATG8 (human); assay: fluorescence polarisation; direct binding (saturation curve): 1:1 dilution series of the protein domain with 5 nM FITC-labelled peptide; room temperature; 50 mM sodium phosphate buffer pH 7.4; fitted to the quadratic equation
T11 construct: GABARAPL2, ATG8 domain; source: E. coli BL21-Gold(DE3), purified (GSH or Ni2+ beads), tag removed by protease

MAP1LC3A ATG8 = biological target: T12, MAP1LC3A ATG8 (human); assay: as above
T12 construct: MAP1LC3A, ATG8 domain; source: E. coli BL21-Gold(DE3), purified (GSH or Ni2+ beads), tag removed by protease

MAP1LC3B ATG8 = MAP1LC3B ATG8 (human); assay: as above
RANBP2 RanBD4 = biological target: T13, RANBP2 RanBD4 (human); assay: as above
T13 construct: the sheet prints 'RanBD1 4'); also called RANBP2 RanBD1 4; RAN2BP RanBD4; source: E. coli BL21-Gold(DE3), purified (GSH or Ni2+ beads), tag removed by protease

## FDTEYQRLEAS (also: FITC label, position not given here) [FITC-ATG9A]
AP2 µ2
  Kd: 1.51 µM

## RQRSAP (also: FITC label, position not given here) [FITC-2BTP]
14-3-3 Theta
  Kd: 27.8 µM

## GSLEMETAFNSRGFED (also: FITC label, position not given here) [FITC-SYT16]
[1]
  Kd: 7.5 µM

## GLIPTAPPAD (also: FITC label, position not given here) [FITC-HIV2_Gag]
TSG101 UEV domain
  Kd: 1.9 µM

B1: GTSE1 692-707 peptide phosphorylated at S699 (peptide)
peptide: YGQLIDLS[pS]PLIQLSPE
notes: not part of GTSE1; G2 and S phase-expressed protein 1 (GTSE1), human, residues 692-707; also called pS699 GTSE1; source: synthetic peptide (Glbiochem or Genecust)
[2]
  Kd: 109 µM

## DDSDEDLLHI (also: FITC label, position not given here) [FITC-IGF2R]
GGA1 VHS domain
  Kd: 31 µM

B2: PDCD6IP Alix V domain (domain or fragment)
chain: PVSVQQSLAAYNQRKADLVNRSIAQMREATTLANGVLASLNLPAAIEDVSGDTVPQSILTKSRSVIEQGGIQTVDQLIKELPELLQRNREILDESLRLLDEEEATDNDLRAKFKERWQRTPSNELYKPLRAEGTNFRTVLDKAVQADGQVKECYQSHRDTIVLLCKPEPELNAAIPSANPAKTMQGSEVVNVLKSLLSNLDEVKKEREGLENDLKSVNFDMTSKFLTALAQDGVINEEALSVTELDRVYGGLTTKVQESLKKQEGLLKNIQVSHQEFSKMKQSNNEANLREEVLKNLATAYDNFVELVANLKEGTKFYNELTEILVRFQNKCSDIVFARKTER
FITC-HIV1_Gag
  Kd: 3.6 µM

B3: GTSE1 692-707 peptide phosphorylated at S698 (peptide)
peptide: YGQLIDL[pS]SPLIQLSPE
notes: not part of GTSE1; G2 and S phase-expressed protein 1 (GTSE1), human, residues 692-707; also called pS698 GTSE1; source: synthetic peptide (Glbiochem or Genecust)
[2]
  Kd: 123 µM

B4: KPNA4 ARM domain (domain or fragment)
chain: GDYRVQNTSLEAIVQNASSDNQGIQLSAVQAARKLLSSDRNPPIDDLIKSGILPILVHCLERDDNPSLQFEAAWALTNIASGTSEQTQAVVQSNAVPLFLRLLHSPHQNVCEQAVWALGNIIGDGPQCRDYVISLGVVKPLLSFISPSIPITFLRNVTWVMVNLCRHKDPPPPMETIQEILPALCVLIHHTDVNILVDTVWALSYLTDAGNEQIQMVIDSGIVPHLVPLLSHQEVKVQTAALRAVGNIVTGTDEQTQVVLNCDALSHFPALLTHPKEKINKEAVWFLSNITAGNQQQVQAVIDANLVPMIIHLLDKGDFGTQKEAAWAISNLTISGRKDQVAYLIQQNVIPPFCNLLTVKDAQVVQVVLDGLSNILKMAEDEAETIGNLIEECGGLEKIEQLQNHENEDIYKLAYEIIDQFFSSDDIDEDPSLVPEAIQGGTFGFNSSANVPTEGFQF
FITC-MYC
  Kd: 0.003 µM
FITC-NCOR2
  Kd: 0.013 µM

## SVDLITFDSV (also: FITC label, position not given here) [FITC-NSP3]
[3]
  Kd: 26 µM

## INLFEKEKEMKKSPTS (also: phosphoserine/threonine, site not given here) [GTSE1_(145–160), phosphorylated (pS)]
GGA1 VHS
  Kd: 640 µM

## DDDWTHLSSK (also: FITC label, position not given here) [FITC-SQSTM1]
GABARAPL2 ATG8
  Kd: 11 µM
MAP1LC3A ATG8
  Kd: 1.36 µM
MAP1LC3B ATG8
  Kd: 2.5 µM

B5: GTSE1 692-707 peptide, unphosphorylated (peptide)
peptide: YGQLIDLSSPLIQLSPE
notes: not part of GTSE1; G2 and S phase-expressed protein 1 (GTSE1), human, residues 692-707; also called wild-type GTSE1; source: synthetic peptide (Glbiochem or Genecust)
[2]
  Kd: 91 µM

B6: GTSE1 692-707 peptide phosphorylated at S705 (peptide)
peptide: YGQLIDLSSPLIQL[pS]PE
notes: not part of GTSE1; G2 and S phase-expressed protein 1 (GTSE1), human, residues 692-707; also called pS705 GTSE1; source: synthetic peptide (Glbiochem or Genecust)
[2]
  Kd: 105 µM

## KEALATPLPK (also: FITC label, position not given here) [FITC-C7orf25]
RANBP2 RanBD4
  Kd: 22 µM
